Source: IntAct's records for PubMed 18930710

B1: Ras-related protein Rap-2a (Homo sapiens), P10114 (parent)
chain: MREYKVVVLGSGGVGKSALTVQFVTGTFIEKYDPTIEDFYRKEIEVDSSPSVLEILDTAGTEQFASMRDLYIKNGQGFILVYSLVNQQSFQDIKPMRDQIIRVKRYEKVPVILVGNKVDLESEREVSSSEGRALAEEWGCPFMETSAKSKTMVDELFAEIVRQMNYAAQPDKDDPCCSACNIQ

Variants of: B1
Conditions: with mink1_human MINK1, Q8N4C8
Chain of mink1_human MINK1, Q8N4C8 (Q8N4C8 whole entry, looked up): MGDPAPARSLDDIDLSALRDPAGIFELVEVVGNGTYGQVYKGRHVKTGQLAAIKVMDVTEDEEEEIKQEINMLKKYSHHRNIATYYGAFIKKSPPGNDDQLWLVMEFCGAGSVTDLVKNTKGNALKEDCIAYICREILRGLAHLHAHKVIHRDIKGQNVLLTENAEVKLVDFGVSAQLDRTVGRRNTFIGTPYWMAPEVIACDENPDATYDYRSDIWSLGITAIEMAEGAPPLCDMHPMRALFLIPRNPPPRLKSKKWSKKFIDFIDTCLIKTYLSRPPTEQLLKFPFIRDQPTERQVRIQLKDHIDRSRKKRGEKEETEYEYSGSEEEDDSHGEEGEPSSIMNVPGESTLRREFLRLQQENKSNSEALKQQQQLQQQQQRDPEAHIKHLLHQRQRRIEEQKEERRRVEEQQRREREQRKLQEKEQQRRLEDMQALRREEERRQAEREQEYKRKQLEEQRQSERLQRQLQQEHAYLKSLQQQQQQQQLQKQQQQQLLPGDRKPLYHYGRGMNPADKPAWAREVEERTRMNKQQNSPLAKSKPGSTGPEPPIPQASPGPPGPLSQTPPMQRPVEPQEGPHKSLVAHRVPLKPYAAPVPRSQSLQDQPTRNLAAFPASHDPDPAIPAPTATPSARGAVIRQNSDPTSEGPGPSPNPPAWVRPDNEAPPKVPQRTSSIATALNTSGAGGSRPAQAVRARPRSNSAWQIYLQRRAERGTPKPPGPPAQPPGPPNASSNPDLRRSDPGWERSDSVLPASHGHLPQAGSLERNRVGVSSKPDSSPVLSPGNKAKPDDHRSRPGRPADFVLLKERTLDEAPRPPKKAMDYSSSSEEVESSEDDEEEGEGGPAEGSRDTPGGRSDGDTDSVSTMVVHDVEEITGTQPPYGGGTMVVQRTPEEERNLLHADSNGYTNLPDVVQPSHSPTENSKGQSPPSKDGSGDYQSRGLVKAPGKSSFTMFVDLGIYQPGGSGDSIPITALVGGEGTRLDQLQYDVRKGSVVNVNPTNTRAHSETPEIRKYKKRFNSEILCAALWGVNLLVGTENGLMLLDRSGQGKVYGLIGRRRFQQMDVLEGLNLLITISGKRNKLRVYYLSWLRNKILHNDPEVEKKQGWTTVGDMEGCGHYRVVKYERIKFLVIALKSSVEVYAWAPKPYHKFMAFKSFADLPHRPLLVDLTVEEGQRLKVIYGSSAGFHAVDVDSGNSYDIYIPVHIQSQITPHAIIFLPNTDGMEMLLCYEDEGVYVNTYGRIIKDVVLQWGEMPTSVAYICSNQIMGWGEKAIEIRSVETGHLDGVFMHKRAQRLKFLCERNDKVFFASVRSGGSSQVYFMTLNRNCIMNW

| Variant | effect of a mutation on the interaction |
| --- | --- |
| MREYKVVVLGSGGVGKNALTVQFVTGTFIEKYDPTIEDFYRKEIEVDSSPSVLEILDTAGTEQFASMRDLYIKNGQGFILVYSLVNQQSFQDIKPMRDQIIRVKRYEKVPVILVGNKVDLESEREVSSSEGRALAEEWGCPFMETSAKSKTMVDELFAEIVRQMNYAAQPDKDDPCCSACNIQ [S17N] | disrupting interaction |
| MREYKVVVLGSGGVGKSALTVQFVTGTFIEKYDPTIEDSYRKEIEVDSSPSVLEILDTAGTEQFASMRDLYIKNGQGFILVYSLVNQQSFQDIKPMRDQIIRVKRYEKVPVILVGNKVDLESEREVSSSEGRALAEEWGCPFMETSAKSKTMVDELFAEIVRQMNYAAQPDKDDPCCSACNIQ [F39S] | disrupting interaction |

Variants of: B1
Conditions: with mink1_mouse Mink1, Q9JM52
Chain of mink1_mouse Mink1, Q9JM52 (Q9JM52 whole entry): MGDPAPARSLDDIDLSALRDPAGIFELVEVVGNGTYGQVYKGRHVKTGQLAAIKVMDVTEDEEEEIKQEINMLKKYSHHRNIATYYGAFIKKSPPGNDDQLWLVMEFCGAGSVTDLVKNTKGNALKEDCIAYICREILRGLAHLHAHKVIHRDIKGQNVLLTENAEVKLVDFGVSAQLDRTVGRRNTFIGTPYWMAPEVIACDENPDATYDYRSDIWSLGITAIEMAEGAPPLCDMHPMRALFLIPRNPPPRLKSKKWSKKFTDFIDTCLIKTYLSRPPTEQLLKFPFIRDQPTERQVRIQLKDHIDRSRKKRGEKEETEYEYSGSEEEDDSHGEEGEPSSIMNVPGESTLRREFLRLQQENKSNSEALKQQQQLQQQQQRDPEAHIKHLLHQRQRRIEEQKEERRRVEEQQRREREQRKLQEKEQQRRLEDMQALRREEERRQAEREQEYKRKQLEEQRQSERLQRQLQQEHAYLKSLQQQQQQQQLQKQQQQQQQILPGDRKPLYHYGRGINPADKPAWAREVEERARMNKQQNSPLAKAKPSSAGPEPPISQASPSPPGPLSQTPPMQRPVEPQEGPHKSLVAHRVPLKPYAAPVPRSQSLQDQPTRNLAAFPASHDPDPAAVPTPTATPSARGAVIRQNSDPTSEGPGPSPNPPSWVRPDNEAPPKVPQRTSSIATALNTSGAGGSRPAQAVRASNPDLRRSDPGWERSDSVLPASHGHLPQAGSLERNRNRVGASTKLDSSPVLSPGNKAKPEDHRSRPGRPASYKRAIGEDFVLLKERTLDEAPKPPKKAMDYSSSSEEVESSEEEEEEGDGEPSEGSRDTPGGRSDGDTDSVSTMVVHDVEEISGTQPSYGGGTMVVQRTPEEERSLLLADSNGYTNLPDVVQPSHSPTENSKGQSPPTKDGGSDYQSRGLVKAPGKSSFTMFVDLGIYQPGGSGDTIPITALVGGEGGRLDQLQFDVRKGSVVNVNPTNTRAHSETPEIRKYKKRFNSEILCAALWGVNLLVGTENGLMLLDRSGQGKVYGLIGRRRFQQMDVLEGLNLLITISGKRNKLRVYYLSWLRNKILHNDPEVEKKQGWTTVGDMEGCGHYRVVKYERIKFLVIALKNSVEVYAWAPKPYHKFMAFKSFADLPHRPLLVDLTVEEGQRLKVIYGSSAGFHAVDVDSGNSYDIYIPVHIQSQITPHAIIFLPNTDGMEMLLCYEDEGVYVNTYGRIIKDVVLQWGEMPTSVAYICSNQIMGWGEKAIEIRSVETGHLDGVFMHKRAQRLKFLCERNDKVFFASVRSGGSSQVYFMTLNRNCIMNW

| Variant | effect of a mutation on the interaction |
| --- | --- |
| MREYKVVVLGSGGVGKSALTVQFVTGTFIEKYDPTIEDSYRKEIEVDSSPSVLEILDTAGTEQFASMRDLYIKNGQGFILVYSLVNQQSFQDIKPMRDQIIRVKRYEKVPVILVGNKVDLESEREVSSSEGRALAEEWGCPFMETSAKSKTMVDELFAEIVRQMNYAAQPDKDDPCCSACNIQ [F39S] | decreasing interaction |
